Measurements from the nanobody polyreactivity screen of Harvey et al. (2022).

Assay: yeast display, Sf9 membrane polyspecificity reagent, FACS + sequencing; frameworks hold sequencing errors
How it was run: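 A synthetic nanobody library was expressed on Saccharomyces cerevisiae BJ5465 by galactose induction for 36–48 hours. The library was stained for 1 hour at 4 °C with 10% biotinylated, detergent-solubilized Sf9 membrane reagent and enriched with streptavidin microbeads before FACS. Low and high (top ~1%) gates were set on anti-HA fluorescence for expression and streptavidin fluorescence for reagent binding, and each polyreactivity label reflects the gate of origin.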

Sequence	polyreactivity (PSR sort gate)
QVQLVESGGGLVQAGGSLRLSCAASGRTFGYYAMGWYRQATGKERELVAAISWSDSGTYYADSVKGRFTISRDNAKNTVYLQMNSLKPEDTAVYYCAKDEPYFVFRDTYDYWGQGTQVTVSS	high polyreactivity
QVQLVESGGGLVQAGGSLRLSCAASGRIFYWNAMGWYRQEPGKEREFVAAIRLSSGSTYYADSVKGRFTISRDNAKYTVYLQLNSLKPVDTAVYYCATRTYTYWGGSYPHFYWGQGTQVTVSS	high polyreactivity
QVQLVESGGGLVQAGGSLRLSCAASGRIFALYAMGWYRQAPGKERELVASITGGTSTNYADSVKGRFTISRDNAKNTVYLQMNSLKPEDTEVYYCAARGYTTGTRNRRYNYWGQGTQVTVSS	high polyreactivity
QVKLVESGGGLVQAGGSLRLSCAASGSIFLSYAMGWYRQAPGKDRELVAAISGGGGSTYYADSVKGRFTISRDNAKNTVYLQMNSLKPEDTAVYYCAADYYYGDALSPYYPHWDFYYWGQGTQVTVSS	low polyreactivity
QVQLVESGGGLVQAGGSLRLSCAASGSIFVWYVMGWYRQAPGKERELVAAITWSAARTYDADSVKGRFTISRDNAKNTVYLQMNSLKPADTAVYYCAADHVSYQPSSRIFDYWGQGTQVTVSS	low polyreactivity
QVQLQESGGGLVQAGGSLRLSCAASGYISFSGYIGRYRQAPGKEREFVDSITPGRSTYYADSVKGRFTISRDNAENTVYLQMNSLKPEDTAVYYCAADDSRTEQHAYWGQGTQVTVSS	high polyreactivity
QVQLVESGGGLVQAGGSLRLSCAASGSIFRGNAMGWYRQAPGKERELVAAINKSGGSTYYADSVKGRFTISRDNAKNTVYLQMNSLKPEDTAVYYCAAVYKRLQPYGYWGQGTQVTVSS	high polyreactivity
QVQLVESGGGLVQAGGSLRLSCAASGFTFGYYAMGWYRQAPGKERELVAAITYSGGSTYYADSVKGRFTISRDNAKNTVYLQMNSLNPEDTAVYYCNAYARRYYYGRWYGEFDYWGQGTQVTLSS	low polyreactivity
QVQLVESGGGLVQAGGSLRLSCAASGRTFQYYAMGWYRQAPGKERELVAAITSGGSTYYADSVKGRFTISRDNAKNTVYLQMNSLKTEDTAVYYCAADFLYYSSGGKMDYWGQGTQVTVSS	low polyreactivity
QVQLVESGGGIVQAGGSLRLSCAASGRIIGYYAMGWYIQAPGKERELVARISSSGGSTYYADSVKGRFTISRDNAKNTVYLQMNSLKPEVTAVYYCNTASNRFPGWRAEFDYWGQGTQVTVSS	low polyreactivity
QVQLVESGGGLVQAGGSLRLSCAATGRTFTGNVMGWYRQAPGKERELVAAISRSGTSTYYADSVKGRFTISRDNAKNTVYLQMNSLKPEDTAVYYCAARRTAGYRSGEYDYWGQGTQVTVSS	high polyreactivity
QVQLVESGGGLVQAGGSLRLSCAASGSTLSFNAMGWYRQAPGKERELVAGITYSGGSTYYADSVKGRFTISRDNAKNTVYLQMNILKPEDTAVYYCNKASGVYYGHLDYWGQGTQVTVSS	low polyreactivity
QVQLVESGGGLVQAGGSLRLSCAASGSIFGKYTMGWYRQAPGKERELVAGITYRAGSTYYADSVKGRFTISRDNAKNTVYLQMNSLKPEDTAVYYCAARFYFRWYYYGSYANYWGQGTQVTVSS	high polyreactivity
QVQLVESGGCLVQAGGSLRLSCAASGSTFDGNAMGWYRQAPGKERELVATINSGSSTTYADSVKGRFTISRDNAKNTVYLQMNSLKPEDTAVYYCNVDSGSDSLVYSVRYNYWGQGTQVTVSS	low polyreactivity
QVQLVESGGGLVHAGGSLRLSCAASGFTLHQYTMGWYRQAPGKERELVAAISDRGTRTYYADSVKGRFTISRDNAKNTVYLQMNSLKPEDPAVYYCAAYIAGVTGGSGYYYWGKGTQVTVSS	high polyreactivity
QVQLVESGGGLVQAGGSLLLSCDASGGTLDYYVMGWYRQAPGKERELVAAISSSGGSTYYADSVKGRFTISRDNAKNTVYLQMNCLNPEDTAVYYCAGDPSPYGDEYDYWVQGTQVTVSS	low polyreactivity
QVQLVESGGGLVQAGGSLRLSCAASGSTLYYNAMGWYRQAPGKERELVAAISWSGGSTYYADSVKGRFTISRDNAKNTVYLQMNSLKPEDTAVYYCAAELSSYYDYDYWGQGTQVTVSS	low polyreactivity
QVQLEESGGGLVQAGGSLRLSCAASGFTFVDYVMGWYRQAPGKERELVAAISRRAGRTYYADSVKGRFTNSRDNAKNTVYFQMNSLKREDTAVYSCAAYLSRSYYAYDYWGQGTQVTVSS	high polyreactivity
QVQLVESGGGLVQAGGSLRLSCAASGYTFNKNTMGWYRQAPGKERELVAAISSSGGRTYYADSVKGRFTISRDNAKNTVYLQMNSLKPEDTAVYYCAARGYFKIHEYDYWGQGTQVTVSS	high polyreactivity
QVQHVESGGGLVQAGGSLRLSCAASGRTFAWYAMGRYRQAPGKERELVAAISSGGSTYYADSVKGRFTISRDNAKNTVYLQMNSLKPEDTAVYYCAAEWHYIYAYDYWGQGTQVTVSS	low polyreactivity
QVQLVESGGGLVQAGGSLRLSCPASGFIINVYVMGWYRQAPGKERELVAAISGGGSTYYADSVKGRFTISRDNAKNTVSLQMNSLKPEDTAVYYCAAVYYYQNEGYDFWGQGTQVTVSS	low polyreactivity
QLHLVESWGGLVQAGGSLRLSCAASGILFQNNDMGSYRQAPGKERELVAAITGSGGSTYYADSVKGRFTISRDNATNTVYLQMNSLKPEDTAVYYCNAVWEYYGKSDYWGQGTQVTVSS	low polyreactivity

Sequence	polyreactivity (PSR sort gate)
QVQLVESGGGLVQAGGSLRLSCAASGFTFKYYAMGWYRQAPGKERELVAAITWSGGSTYYADSVKGRFTISRDNAKNTVYLQMNSLKPEDTAVYYCNAKVYQISRYGYWGQGTQVTVSS	high polyreactivity
QVQLVESGGGLVQAGGSLRLSCAASGSIFYIYAMGWYRQAPGKERELVAAISWRTSSTYYADSVKGRFTISRDNAKNTVYLQMNSLKPEDTAVYYCAAETWLGSWRQVGMDYWGQGTQVTVSS	high polyreactivity
QVQLVESGGGIVQSGGSLRLICAASGGIFKYNAMGWYRQAPGKERELVAAINYSGGRTYYADSVKGRFTISRDNAKNTVYLQMNSLKPEDTAVYYCNALTRGHTGQPYTYDYWGQGTQVTVSS	high polyreactivity
QVQLVESGGGLVQAGGSLRLSCAASGLIFGYYAMGWYRQAPGKEREFVAAIDGSDGTTYYADSVKGRFTISRDNAKNTVYLQMTSQKPEDTAVYYCNADSSSYSSDLGYDYWGQGTQVTVSS	low polyreactivity
QVQLVESGGGLVQAGGSLRISCAASGSIFASKTMGWYRQAPGKERELVAGITKIGSSTYYADSVKGRFTISRDNAKNTVYLQMNSLKPEETAVYYCNAYLSPKQPLSPPEPTFEGGYWGQGTQVTVSS	low polyreactivity
QVQLVESGGGLVQAGGSLRLSCADSGSTFTRYGMGWYRQAPGKERELVAAITTSGSSTYYADSVKGRYTISRDNAKNTVYLQMNSLKPEDTAVYYCAADWSSWGFDYWGQGTQVTVSS	low polyreactivity
QVQLVESGGGLVQAGGSLRLSCAASGSIFYTNAMGWYRQAHGKERELVAAIRTGGSTNYADSVKGRFTISRDNAKNTDYLQMNSLTPDDTAVYYCNADVYIRDLFYPYIYTYDYWGQGTQVTVSS	low polyreactivity
QVQLVESGGGLVQAGGSLRLSCAASGNTIVTNTMGWYRQAPGKERELVAAIDSGGDTYYADSVKGRFTISRDNAKNTVYLQMNSLKPEDTAVYYCAAVGDPNYFSNRRYEYWGQGTQVTVSS	low polyreactivity
QVQLVESGGGLVQAGGRLRLSCAASGRTFATNTMGWYIQAPGKEREFVAAISRGGVSTSYADSVKGRFTISRDNAKNTVYLQMNSLKPEDTAVYYCAANHYGFNRNHRHTYVYWGQGTQVTVSS	high polyreactivity
QVQLVESGGGLVQAGGSLRLSCAASGSTFGTYAMGWYRQAPGKERELVAVISWSDGRTYYADSVKGRFTISRDNAKNTVYLQMISLKPEDTAVYYCNARLDTFVPRYGYWGQGTQVTVSS	high polyreactivity
QVQLVESGGGLVQAGGSLRLSCAASGSIFPGNAMGGYRQAPGKERELVAAIRGGGSTNYADSVKGRFTISRDTAKNTVYIQMNSLKPEDTAVYYCAAQGILGSYDYWGQGTQVTVSS	low polyreactivity
QDQHVESGGGLVQAGGSLRLSCAASGSTFPTNAMGWYRQAPGKERELVADITIRGGGTSYADSVKGRFTISRDNAKNTVYLQMNSLKPEDTEVYYCARSKSTELKRLLYDSWGQGTQVTVSS	low polyreactivity
QVQLVESGGGLVQAGGSLRLSCAASGLIFAFYAMGWYRQAPVKERELVASIDKSGGSTYADSVKGRFTISRDNAKNTVYLQMNSLKQEDTAVYYCAADYSLIDLFYWGQGTQVTVSS	low polyreactivity
QVQLVESAGGLVQAGGSLRLSCAASGSSLGYYAMGWYRQAPGKERELVADIDNGTSTYYADSVKGRFTISRDNAKNTVYLQMNSLKQEDTAVYYCAADYYSRYLQSYYWGQGTQVTVSS	low polyreactivity
QVQLVESGGGLVQAGGSLRLSCAASGRTFRINAMGWYRQAPGKERELVAAINDGGDTYADSVKGRFTISRDNANNTVYLQMNSLKPEDTAVYYCAAPLGGGARWGRWWLYDSWGQGTQVTVSS	low polyreactivity
QVQLVESGGGLVQAGGSLRLSCAASGRTFQYYAMGWYRQAPGKERELVAAITSGGSTYYADSVKGRFTISRDNAKNTVYLQMNSLKPEDTAVYYCAATFYYSGHDDYWGQGTQVTVSS	low polyreactivity
QVQLVESGGGLVQAGGSLRLSCAATGLIFAYNTMGWYRQAPGKERELVAGITSSGSTYYADSVKGRFTISRDNAKNTVYVQMNSLKPEDTAVYYCAAEWDDGRSWYWYYLVGFEYWGQGTQVTVSS	high polyreactivity
QVQLVESGGGLVQAGGSLRLSCAASGIFVVYAMGWYRQAPGKERELVAAISSGVSTTYADSVKGRFTISRDNAKNTVYLQMNSLKPEDTAVYYCNTLWGHQYIVPYRTREFYYWGQGTQVTVSS	low polyreactivity
QVQLVESGGGLVQAGGSLRLSCAASGFIFVRNTRGWYRQAPGKERELVAAISSRGGRTYYADSVKGRFTISRDNAKNTVYLQMNSLKPEDTAVYYCAKAHSVNQRYDYWGQGTQVTVSS	high polyreactivity
QVQLVESGGGLVRAGGSLRLSCAASGSTFTNNAMGWYRQAPGKERELVAAITWIGGNTYYADTVKGRFTISRDNAKNTVYLQMNSLKPEDTAVYYCAADRRSRYHDVYGWLYYYWGQGTQVTVSS	low polyreactivity
QVQLVESGGGLVQAGGSLRLSCAASGFIFPGNVMGWYRQAPGKERELVAAITWSGGSTYYADSVKGRFTISRDNAKNTVYLQMNSLKPEDTAVYYCNADAFSFFGYLERMEYWGQGTLVTVSS	low polyreactivity
